From publication PMC5570134

Molecular target: FUS RRM (UniProt P35637 267-373)
Assay: EMSA

Sequence of FUS RRM (P35637 267-373): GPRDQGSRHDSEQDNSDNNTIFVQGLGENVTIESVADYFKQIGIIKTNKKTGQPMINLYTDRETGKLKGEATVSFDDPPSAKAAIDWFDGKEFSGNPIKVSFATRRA

| Binder | Kd [µM] |
| --- | --- |
| AAAAAAAAAAAAAAAAAAAAAAAAAAAAAAAAAAAAAAAA (ssRNA) [Poly-A] | 45 ± 2 |
| GCUGCGGUGUGGAAGGAGUGGCUGGGUUGCGCAGG (structured_RNA) [Sc1] | 48 ± 3 |
